Assays:
[1] = tested on: DCs; test: PpIX flow cytometry analysis and hemin colorimetric assay; type: cell-based, Murine
Procedure: IDO enzymatic assay and Hemin assay: DC IDO enzyme activity was measured by the conversion of L-tryptophan to L-kynurenine in conditioned media by HPLC (Pallotta et al., 2011). Intracellular hemin was measured using a colorimetric assay kit (BioVision).
PpIX Analysis: DCs were terminally incubated in the presence of 1 mM δ-aminolevulinic acid (ALA) for 4 hrs. Intracellular PpIX was analyzed by flow cytometry as previously described (Hryhorenko et al., 1998).

[2] = tested on: DCs; test: Flow cytometry of DC surface maturation markers; type: cell-based, Murine
Procedure: Flow Cytometry: One million cells were stained with 1 μg per million cells of each fluorochrome conjugated antibodies or commercially available dyes according to the standard protocols and analyzed using a FACSCanto II or LSRII (Becton Dickinson).

[3] = tested on: CD8+ T cell proliferation; test: T cell proliferation assay (CellTrace Violet dilution, OT-1 splenocytes with conditioned DCs); type: cell-based, mice; conditions: DCs pre-treated, LPS stimulated
Procedure: T Cell Proliferation Assay: Splenocytes of OT-1 mice (H-2b) were isolated and stained with CellTrace Violet (ThermoFisher). Preconditioned DCs were loaded with ovalbumin peptide SIINFEKL, and co-cultured at a DC:splenocyte ratio of 40,000:120,000 cells for 72 hrs. CD8+ T cell proliferation was measured by the dilution of Cell Trace Violet dye by flow cytometry.

[4] = tested on: BMDCs; test: Metabolomics LC-MS of TCA intermediates; type: cell-based, Murine; conditions: rWnt5a stimulation
Procedure: Metabolomics: Metabolites were extracted from 5×106 BMDCs and subjected to LC-MS analysis according to a previously published protocol (Liu et al., 2014a, Liu et al., 2014b). Metabolites were extracted from 5×106 BMDCs from each experimental group (3 mice per group), washed with ice cold PBS, and lysed in 80% (v/v) methanol on dry ice. Cell lysates were frozen at −80° C. for 15 minutes to disrupt cell membrane and quench enzymatic activity. Samples were then thawed on ice, vortexed rigorously to extract metabolites, and then centrifuged at 20,000 g at 4° C. to precipitate proteins and cell debris. Metabolite extracts were then dried using a speed vacuum and subjected to LC-MS analysis (Liu et al., 2014a, Liu et al., 2014b). Data collected from LC-Q exactive MS is processed on Sieve 2.0 (Thermo). For metabolite analysis, theoretical m/z and retention time of 263 known metabolites were used for positive mode, and 197 metabolites were used for negative mode. Data containing detected m/z and relative intensity of different samples were obtained.

[5] = tested on: Akt; test: Akt Thr-308 phosphorylation immunoblot of DCs; type: cell-based, Murine; conditions: Wnt5a 200 ng/mL, 48 hrs
Text: Data is representative of 3 independent experiments. […] Data is representative of 3 independent experiments. […] Antibodies, Immunoprecipitation, and Immunoblot Analysis: Primary antibodies including CPT1A (Cell signaling), PPAR-γ (Santa Cruz Biotechnology), β-catenin, β-actin (Millipore), p-AMPK(T172)/AMPK (Cell signaling), p-AKT(T308)/Akt (Cell Signaling) were used at 1:1000. Secondary antibodies including goat anti-rabbit IgG-HRP (Millipore) and goat anti-mouse IgG-HRP (Millipore) were used at 1:5000. Cells were lysed in Laemmli sample buffer after treatment and subjected to SDS-polyacrylamide gel electrophoresis and immunoblot analysis. For immunoprecipitation, cells were lysed in radio immunoprecipitation assay (RIPA) buffer [10 mM sodium phosphate (pH 8.0), 150 mM NaCl, 1% Triton X-100, 1% sodium deoxycholate, and 0.1% SDS in the presence of 1 mM DTT, 1 mM phenylmethylsulfonylfluoride, and a protease inhibitor cocktail (Sigma)], precleared with protein A beads, and then incubated with 1 μg of antibody against β-catenin or isotype control IgG with protein A-agarose beads on a rotator overnight at 4° C. After 3 washes with RIPA buffer, immunoprecipitated complexes were eluted in sample buffer by boiling and subjected to immunoblot analysis. Immunoblots were visualized by chemiluminescence substrate (ThermoFisher) and imaged by a ChemiDoc XRSplus system (BioRad).

[6] = tested on: DCs; test: Oxygen consumption rate (OCR) / OXPHOS, Seahorse XFe24 flux analysis of murine DCs; type: cell-based; conditions: DCs pre-treated
Procedure: Dendritic Cell Conditioning: DCs were treated with Wnt3a (100 ng/mL), Wnt5a (200 ng/mL), LPS (1 μg/mL), 1-MT (1 mM), 2DG (1 mM), or ETO (100 μM), 2-DG(2-deoxy-d-glucose, 1 mM), Oligomycin (1 μM), succinylacetone (250 μM), or vehicle control either for 24 or 48 hrs prior to their use in both in vitro and in vivo experiments.
Cellular Energy Metabolism Analysis: DC energy metabolism was measured using the XFe24 extracellular flux analyzer (Seahorse Bioscience), with the glycolysis stress test kit and the mitochondrial stress test kit as previously described (Everts et al., 2014, Zhao and Klimecki, 2015). For experiments involving LPS injection, DCs were plated in XFe24 plates (200,000/well in 500p1) and treated with LPS for 48 hours prior to XF analysis. DCs were washed and analyzed in XF media (RPMI without sodium bicarbonate, 10 mM glucose, 1% FBS, 2 mM L-glutamine). ECAR was analyzed in real-time with or without LPS stimulation. For experiments involving BrafV600EPten−/− cell line-derived conditioned media (CM), collected CM was concentrated and desalted with an Amicon Ultra 30K filter according to manufacturer's recommendations (Milipore). Final concentrate was further washed with XF media 3 times, added to DCs immediately prior to OCR analysis. For standard ECAR analysis, XF media (without glucose) was used to wash cells prior to the assay. […]

B1: Wnt5a: Recombinant Human/Mouse Wnt5a Protein (R&D Systems) (protein, UniProt P41221 62-380, looked up)
Protein Wnt-5a: IIGAQPLCSQLAGLSQGQKKLCHLYQDHMQYIGEGAKTGIKECQYQFRHRRWNCSTVDNTSVFGRVMQIGSRETAFTYAVSAAGVVNAMSRACREGELSTCGCSRAARPKDLPRDWLWGGCGDNIDYGYRFAKEFVDARERERIHAKGSYESARILMNLHNNEAGRRTVYNLADVACKCHGVSGSCSLKTCWLQLADFRKVGDALKEKYDSAAAMRLNSRGKLVQVNSRFNSPTTQDLVYIDPSPDYCVRNESTGSLGTQGRLCNKTSEGMDGCELMCCGRGYDQFKTVQTERCHCKFHWCCYVKCKKCTEIVDQFVCK
[1]
  DC concentrations of PpIX and hemin: enhanced DC concentrations of the PpIX prosthetic group and its downstream degradation product, hemin
[2]
  DC surface maturation markers / co-stimulatory receptors: absence of any alterations in DC surface maturation markers
[3]
  LPS-induced DC-mediated antigen-specific T cell proliferation: suppresses LPS-induced DC-mediated antigen-specific T cell proliferation
[4]
  TCA intermediate metabolites: increased quantities of many TCA intermediates but a decrease in α-ketoglutarate
[5]
  DC Akt Thr-308 phosphorylation: no impact
[6]
  OXPHOS in DCs (OCR): effectively promoted OXPHOS in DCs

— patent US11643691B2, “Predictive biomarkers for cancer immunotherapy and methods of using same” (Duke University, priority 2018, dated 2023)
